By Kd is commonly meant the concentration at which binding is half-saturated. A higher Kd goes with lower affinity.

The record followed here is patent US20240279325A1 (Chugai, published 2024).

Experiment [1] has as its target T1, human FcγRIIa type R (allotype R131) (human, UniProt P12318 36-217).
T1 construct: also called FcγRIIaR; R-type FcγRIIa
T1 chain: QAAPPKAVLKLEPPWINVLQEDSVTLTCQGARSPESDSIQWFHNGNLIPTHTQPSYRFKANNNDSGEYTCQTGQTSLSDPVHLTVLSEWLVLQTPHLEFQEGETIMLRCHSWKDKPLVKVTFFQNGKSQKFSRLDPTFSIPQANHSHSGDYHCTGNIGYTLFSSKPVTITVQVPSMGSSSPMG
The experiment is described as follows: SPR (Biacore), amount bound against IL6R-F652/IL6R-L x 100. The source says: (§1) These variants were expressed and purified by the method of Reference Example 1. These Fc variants are called PD variants. Interactions of each PD variant with FcγRIIa type R (allotype R131) and FcγRIIb were comprehensively evaluated by the method of Reference Example 2.
Background: SPR reads the build-up and loss of mass on a sensor chip optically.

The target of another experiment is T2, human FcγRIIb (human, UniProt P31994 43-217).
T2 sequence: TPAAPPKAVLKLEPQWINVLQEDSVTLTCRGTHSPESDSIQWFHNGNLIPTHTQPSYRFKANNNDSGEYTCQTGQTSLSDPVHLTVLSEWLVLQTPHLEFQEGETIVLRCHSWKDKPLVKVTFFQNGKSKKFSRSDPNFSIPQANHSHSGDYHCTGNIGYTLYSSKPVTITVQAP
Described as above.
Description: as §1

For experiment [2], the target named is T3, FcγRIa extracellular domain, C-terminal His tag (human, UniProt P12314 16-292).
T3 construct: extracellular domain; not shown: His tag at the C terminus
T3 sequence (P12314 16-292): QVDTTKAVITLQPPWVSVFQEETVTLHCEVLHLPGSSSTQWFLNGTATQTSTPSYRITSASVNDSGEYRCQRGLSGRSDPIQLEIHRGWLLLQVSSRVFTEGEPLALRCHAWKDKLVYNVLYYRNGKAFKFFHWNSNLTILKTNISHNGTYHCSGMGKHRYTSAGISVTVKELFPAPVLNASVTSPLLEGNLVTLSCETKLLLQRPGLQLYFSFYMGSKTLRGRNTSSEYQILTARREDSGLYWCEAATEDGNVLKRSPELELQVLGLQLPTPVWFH
The experiment is described as follows: SPR (Biacore), antibody captured on chip, FcγR extracellular domain as analyte, 25 C.

The target of experiment [3] is T4, human FcγRIIa type R (allotype R131) extracellular domain with C-terminal His tag (human, UniProt P12318 34-217).
T4 construct: also called FcγRIIaR
T4 chain: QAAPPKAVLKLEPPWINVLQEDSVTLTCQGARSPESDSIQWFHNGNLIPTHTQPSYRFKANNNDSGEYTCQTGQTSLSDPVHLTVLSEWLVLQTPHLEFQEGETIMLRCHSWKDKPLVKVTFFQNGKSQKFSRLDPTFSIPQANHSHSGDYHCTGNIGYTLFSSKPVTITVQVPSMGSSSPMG
The experiment is described as follows: SPR (Biacore), antibody captured, FcγR analyte.

The target of experiment [4] is T5, human FcγRIIIa type V (allotype V158) extracellular domain with C-terminal His tag (human, UniProt P08637 17-208).
T5 construct: also called FcγRIIIaV
T5 sequence (P08637 other isoform, or with tags, fused parts or gaps): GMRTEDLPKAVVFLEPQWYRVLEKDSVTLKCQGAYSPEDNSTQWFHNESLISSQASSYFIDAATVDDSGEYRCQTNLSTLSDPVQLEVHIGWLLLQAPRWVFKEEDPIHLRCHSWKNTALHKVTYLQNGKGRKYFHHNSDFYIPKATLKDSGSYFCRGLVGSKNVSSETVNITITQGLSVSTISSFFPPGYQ
Put plainly: SPR (Biacore), antibody captured, FcγR analyte.

B1: IL6R-F652/IL6R-L (antibody, human IgG1, kappa)
heavy: QVQLQESGPGLVKPSETLSLTCAVSGHSISHDHAWSWVRQPPGEGLEWIGFISYSGITNYNPSLQGRVTISRDNSKNTLYLQMNSLRAEDTAVYYCARSLARTTAMDYWGEGTLVTVSSASTKGPSVFPLAPSSKSTSGGTAALGCLVKDYFPEPVTVSWNSGALTSGVHTFPAVLQSSGLYSLSSVVTVPSSSLGTQTYICNVNHKPSNTKVDKKVEPKSCDKTHTCPPCPAPELLGGDSVFLFPPKPKDTLYISRTPEVTCVVVDVSHEDPEVKFNWYVDGVEVHNAKTKPREEQYNSTYRVVSVLTVLHQDWLNGKEYKCKVSNKALPAPIEKTISKAKGQPREPQVYTLPPSRDELTKNQVSLTCLVKGFYPSDIAVEWESNGQPENNYKTTPPVLDSDGSFFLYSKLTVDKSRWQQGNVFSCSVMHEALHYHYTQKSLSLSP
light: not shown
notes: copies: 2 + 2
For B1, the relative binding activity (in experiment [1]; with human FcγRIIb) was 100 IL6R-F652/IL6R-L = 100 each time.

B2: IL6R-BP182/IL6R-L (antibody, human IgG1, kappa, name in EU numbering)
heavy: QVQLQESGPGLVKPSETLSLTCAVSGHSISHDHAWSWVRQPPGEGLEWIGFISYSGITNYNPSLQGRVTISRDNSKNTLYLQMNSLRAEDTAVYYCARSLARTTAMDYWGEGTLVTVSSASTKGPSVFPLAPSSKSTSGGTAALGCLVKDYFPEPVTVSWNSGALTSGVHTFPAVLQSSGLYSLSSVVTVPSSSLGTQTYICNVNHKPSNTKVDKKVEPKSCDKTHTCPPCPAPDLLGGDSVFLFPPKPKDTLMISRTPEVTCVVVDVSHEDGEVKFNWYVDGVEVHNAKTKPREEQDNSTYRVVSVLTVLHQDWLNGKEYKCKVSNKALPKPIEKTISKAKGQPREPQVYTLPPSRDELTKNQVSLTCLVKGFYPSDIAVEWESNGQPENNYKTTPPVLDSDGSFFLYSKLTVDKSRWQQGNVFSCSVMHEALHNHYTQESLSLSP
light: not shown
notes: copies: 2 + 2
Consider B2, for which the affinity in experiment [2], expressed as Kd, was 0.02 µM.

B3: IL6R-BP112/IL6R-L (antibody, human IgG1, kappa, name in EU numbering)
heavy: QVQLQESGPGLVKPSETLSLTCAVSGHSISHDHAWSWVRQPPGEGLEWIGFISYSGITNYNPSLQGRVTISRDNSKNTLYLQMNSLRAEDTAVYYCARSLARTTAMDYWGEGTLVTVSSASTKGPSVFPLAPSSKSTSGGTAALGCLVKDYFPEPVTVSWNSGALTSGVHTFPAVLQSSGLYSLSSVVTVPSSSLGTQTYICNVNHKPSNTKVDKKVEPKSCDKTHTCPPCPAPELLGGDSVFLFPPKPKDTLMISRTPEVTCVVVDVSHEDGEVKFNWYVDGVEVHNAKTKPREEQYNSTYRVVSVLTVLHQDWLNGKEYKCKVSNKALPAPIEKTISKAKGQPREPQVYTLPPSRDELTKNQVSLTCLVKGFYPSDIAVEWESNGQPENNYKTTPPVLDSDGSFFLYSKLTVDKSRWQQGNVFSCSVMHEALHNHYTQESLSLSP
light: not shown
notes: Alterations introduced into IL6R-B3; also called P238D/P271G; copies: 2 + 2
In the case of B3, the Kd in experiment [3] was found to be 3.5 µM; in experiment [4] it was 69 µM.
